Data: PMC9481538, “The interaction between LC8 and LCA5 reveals a novel oligomerization function of LC8 in the ciliary-centrosome system” (Scientific Reports, 2022)

How the values were obtained:
LC8 [1] = molecular target: T1, LC8 (Homo sapiens, UniProt Q96FJ2); test: isothermal titration calorimetry, sLCA5 fragments titrated with LC8; assay type: binding; conditions: PBS pH 7.4, 1 mM TCEP, 37 °C; for − TΔS: ITC, MBP-fused sLCA5 titrated with LC8
T1 construct: 6xHis (N); made in house; host or cells: E. coli BL21 (DE3) Rosetta
Experimental: LC8 and MBP-fused LCA5 constructs were prepared in PBS supplemented with 1 mM TCEP. Before measurement, protein samples were dialyzed overnight in PBS pH 7.4 (Orange Scientific, OrDial D14 membrane). Peptides were diluted from stock with the buffer used for dialysis. The concentration of samples was determined based on absorbance at 280 nm in the case of proteins, and 205 nm for the peptide. Experiments were performed using MicroCal PEAQ-ITC (Malvern Panalytical), LCA5 peptides were measured at 25 °C, proteins were analyzed at 37 °C. Lebercilin peptide was injected into the cell 18 times 2 μl volumes, with 5 min timing between injections. In case of the protein, LCA5 was placed in the sample cell, and LC8 was injected during 37 injections, 1 μl each. The results were evaluated using MicroCal PEAQ-ITC Analysis Software.

GST-fused LC8 = test: GST pull-down of LC8 and sLCA5; assay type: binding; conditions: GST-LC8 bait, MBP-, 6x-His-fused sLCA5 prey, PBS, 1 mM DTT, room temperature; result in words
Experimental: For the pull-down experiments, GST-fused LC8 was used as bait, and MBP-, 6x-His-fused LCA5 variants as prey. For controls, GST and MBP were used. Proteins were expressed in 100 ml cultures of E. coli BL21 (DE3) Rosetta cells as described above. Cells were harvested, resuspended in 5 ml PBS supplemented with 1 mg/ml lysozyme and 1 mM DTT, sonicated and clarified by centrifugation. 20 μl of Glutathione Sepharose 4B (Macherey–Nagel) (75%) resin was used for each experiment. Baits were incubated with the resin for 1 h at room temperature, then washed with PBS supplemented with 1 mM DTT. Prey proteins were added and incubated for one hour. The beads were washed and eluted by boiling in a 2 × SDS sample buffer and analyzed in tricine SDS page according to the protocol of Schagger et al[43].

CD thermal denaturation = assay type: physicochemical; conditions: CD at 222 nm, 10–80 °C; for melting temperature Tm: 1 °C/min, two-state fit, without or with LC8 as label shows; for increase in melting temperature on LC8 binding: sLCA5 in complex with LC8 vs without
Experimental: (§1) CD experiments were carried out on a Jasco J-810 spectropolarimeter using a 1 mm quartz cuvette. For the spectra of the individual constructs, 8 scans were recorded and averaged between 200 nm or 190 nm and 260 nm (in continuous scanning mode, data pitch: 0.2 nm, scanning speed: 50 nm/min, response: 2 s, bandwidth: 2 nm). sLCA5-WT and the mutants were measured at 0.1 mg/ml concentration. 1.2 μM LCA5 and 6 μM LC8 were complexed and analyzed. The spectra of LC8 at a concentration of 6 μM was recorded under the same experimental conditions as described before and subtracted from the individual CD spectra of the sLCA5-LC8 complexes. The baseline subtracted data were evaluated using the BeStSel web-server (http://bestsel.elte.hu/index.php)[46],[47]. Thermal denaturation experiments were recorded at 222 nm between 10 and 80 °C using 1 °C/min heating rate. The thermal denaturation profile was fitted according to the Gibbs–Helmholtz equation assuming a two-state model as described by Shih et al[48]. After fitting, the curves were normalized by the following equation. y=-m^∘-An-T∗mn/Ad-An+md-mnT-1 where y is the ratio of native and unfolded state, An and Ad are the initial values of the Gibbs–Helmholtz equation belong to the native and denatured state, mn and md are the slopes belong to the An and Ad values, m° is the measured CD value in millidegree and T is the temperature in °C.

[2] = CD spectroscopy, helical content; assay type: physicochemical
Experimental: as §1, with “°C. […]” for “°C.”

[3] = analytical gel filtration; assay type: physicochemical
Experimental: (§2) For analytical gel filtration a Superose 6 Increase 10/300 (Cytiva) was used with an effective resolution between 5–5000 kDa range and a void volume above 5000 kDa. The column was equilibrated in DPBS supplemented with 200 μM TCEP. The calibration curve was fitted on the chromatogram of gel filtration standard mix (BioRad) with the addition of Dextran Blue to determine the void volume. 100 μl of LCA5 purified protein or LCA5-LC8 complex was injected at the concentration of 30 μM for LCA5 and 150 μM for LC8, with a flow rate of 500 μl/min immediately or after 60 min of incubation at 37 °C. For densitometric analysis, fractions were collected and 200 μl of samples were precipitated in 1.8 ml 96% ethanol at − 80 °C for 2 h. The samples were centrifugated for 30 min at 14,000 g, and dissolved in 15 μl of SDS sample buffer. 10 μl of each sample was run on Tricine-SDS gel. The calibration of the densitometry was performed on samples of known molar ratio of sLCA5 construct and LC8 (see the original gel used for calibration on Suplementary Fig. S16). Data evaluation was performed by using Origin 8 software and Fiji ImageJ software.

[4] = negative staining transmission electron microscopy of sLCA5-LC8 complexes; assay type: physicochemical
Experimental: For TEM negative staining experiments, a JEOL JEM-1011 (JEOL Ltd., Tokyo, Japan) electron microscope was used. The purified LCA5-LC8 complexes or LC8 or LCA5 forms alone were put together by using LCA5-WT or the single or double mutants at 30 μM and LC8 at 150 μM concentration in a buffer of 20 mM Tris 70 mM NaCl, pH 7.4, and incubated at 37 °C for 1 h. The complexes were diluted to a final 0.2 mg/ml concentration in the buffer and applied to 300 mesh formvar/carbon-coated copper grids (SPI Inc., USA). After 2 min of incubation the surplus was removed by filter paper and 1% uranyl acetate was applied for 1 min as negative staining. Images were taken around the middle of the grid at 5000, 50,000, 150,000 and 300,000-fold magnification. The collected data was analyzed by Fiji ImageJ software, and the statistical analysis was carried out in Origin 8 software.

LC8 [5] = molecular target: T1, LC8; test: composition of complexes of LC8 binding partners (Supplementary Table S1); conditions: this paper's constructs
Text: Number of LC8 Number of Ratio of LCA5
LC8 binding monomeric binding monomeric LC8 in monomers to LC8
Gene name sites partners in complex complex monomers
Supplementary Table S1. Stoichiometries of various LC8 binding partners in complex with LC8. Known LC8 binding partners according to literature data always form dimers upon LC8 binding. The stoichiometry is basically 1:1 in case of one LC8 binding site,where 2 monomeric partners are dimerized by binding one dimeric LC8. This ratio could increase up to 1:11 in case of ASCIZ where the dimeric ASCIZ possibly could bind 11 LC8 dimers in […]
occupied. According to our ITC and CD spectroscopy data, we proposed a very different binding model where the LCA5 forms likely […] alone and LC8 could interconnect this dimerized, moreover the possible binding sites are not fully occupied. […]
and 1:1 ratio case of single mutant LCA5 construct where one binding site presented and in case of wild type LCA5 where 2 binding sites presented, respectively.

LC8 [6] = molecular target: T1, LC8; test: SDS-PAGE densitometric analysis of gel filtration fractions (sLCA5:LC8 molar ratio); assay type: binding; conditions: SDS-PAGE densitometry; result in words
Experimental: as §2

T1 sequence (Q96FJ2 whole entry, the tested form may be a part): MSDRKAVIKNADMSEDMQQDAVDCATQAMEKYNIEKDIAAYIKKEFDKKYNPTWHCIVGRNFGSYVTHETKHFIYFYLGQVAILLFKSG

Molecule	− TΔS (LC8 [1]) [kcal/mol]	interaction with LC8 (GST pull-down) (GST-fused LC8)	melting temperature Tm (CD thermal denaturation)	increase in melting temperature on LC8 binding (CD thermal denaturation)	molar ellipticity curve upon addition of LC8 ([2]; 20 °C, LC8 in fivefold molar excess, vs sLCA5-WT without LC8, result in words)	helical structures preserved at higher temperatures ([2]; CD, BeStSel, 20 vs 40 °C, in the presence of LC8, LC8 and MBP-tag subtracted) [%]	estimated molar mass (gel filtration) ([3]; Superose 6 Increase 10/300, DPBS, 200 μM TCEP, void volume above 5000 kDa, listed as wild-type LCA5 construct)	void fraction (higher order oligomers) ([3]; gel filtration void volume, result in words)	increase of the difference between incubated wild type and sLCA5-ΔCQS complexes ([3]; void fraction, prolonged incubation with LC8)	stronger propensity to form higher order oligomers vs sLCA5-ΔCQS ([3]; void volume fraction size, with LC8 in fivefold molar excess)	void fraction increment on incubation ([3]; with LC8, 60 min at 37 °C vs non-incubated complex) [%]	measured diameter median of spherical complexes ([4]; 30 μM sLCA5 + 150 μM LC8, 37 °C 1 h, 20 mM Tris 70 mM NaCl pH 7.4)	increase in size of complexes vs sLCA5-ΔCQS complexes ([4]; TEM diameters with LC8, significant by two sample t-test, p = 0.05) [%]	LC8 binding sites (LC8 [5])	measurable interaction with LC8 (ITC) (LC8 [1]; titrated with LC8, result in words)	LC8 content of fraction (LC8 [6])
sLCA5-WT: truncated LCA5 96–430 fused to an N-terminal MBP tag (protein, left off: MBP, N-terminal, kept | His6, C-terminal, kept, truncated LCA5 96–430 fused to an N-terminal MBP tag) DTDLVTKRILSARLLKINELQNEVSELQVKLAELLKENKSLKRLQYRQEKALNKFEDAENEISQLIFRHNNEITALKERLRKSQEKERATEKRVKDTESELFRTKFSLQKLKEISEARHLPERDDLAKKLVSAELKLDDTERRIKELSKNLELSTNSFQRQLLAERKRAYEAHDENKVLQKEVQRLYHKLKEKERELDIKNIYSNRLPKSSPNKEKELALRKNAACQSDFADLCTKGVQTMEDFKPEEYPLTPETIMCYENKWEEPGHLTLDLQSQKQDRHGEAGILNPIMEREEKFVTDEELHVVKQEVEKLEDEWEREELDKKQKEKASLLER	3.28	can bind LC8	41,1 °C	~ 5 °C	remained the same	80	~ 610 kDa	remarkable increase in the void volume fraction	~ 3.5 fold	~ 20%	324	~ 39 nm	20	2		
sLCA5-ΔCQS-ΔVQT: double mutant sLCA5, both LC8 binding motifs mutated (protein, left off: MBP, N-terminal, kept | His6, C-terminal, kept) DTDLVTKRILSARLLKINELQNEVSELQVKLAELLKENKSLKRLQYRQEKALNKFEDAENEISQLIFRHNNEITALKERLRKSQEKERATEKRVKDTESELFRTKFSLQKLKEISEARHLPERDDLAKKLVSAELKLDDTERRIKELSKNLELSTNSFQRQLLAERKRAYEAHDENKVLQKEVQRLYHKLKEKERELDIKNIYSNRLPKSSPNKEKELALRKNAAAAADFADLCTKGAAAMEDFKPEEYPLTPETIMCYENKWEEPGHLTLDLQSQKQDRHGEAGILNPIMEREEKFVTDEELHVVKQEVEKLEDEWEREELDKKQKEKASLLER		abolished the interaction with LC8	40,7 °C	no similar increase was observed											did not show any measurable interaction	unable to bind LC8
sLCA5-ΔVQT: sLCA5 with the three core residues VQT exchanged for three alanines (protein, left off: MBP, N-terminal, kept | His6, C-terminal, kept, sLCA5 with the three core residues VQT exchanged for three alanines) DTDLVTKRILSARLLKINELQNEVSELQVKLAELLKENKSLKRLQYRQEKALNKFEDAENEISQLIFRHNNEITALKERLRKSQEKERATEKRVKDTESELFRTKFSLQKLKEISEARHLPERDDLAKKLVSAELKLDDTERRIKELSKNLELSTNSFQRQLLAERKRAYEAHDENKVLQKEVQRLYHKLKEKERELDIKNIYSNRLPKSSPNKEKELALRKNAACQSDFADLCTKGAAAMEDFKPEEYPLTPETIMCYENKWEEPGHLTLDLQSQKQDRHGEAGILNPIMEREEKFVTDEELHVVKQEVEKLEDEWEREELDKKQKEKASLLER	4.32	did not abolish the interaction with LC8														only a trace amount of LC8
